Measured values from patent US20150037348A1 (AbbVie / Abbott, published 2015).

B1: 170-19 (scFv, V domains shown)
VH: QVQLVQSGGGVVQPGRSLRLSCAASGFTFSSYGMHWVRQAPGKGLEWVAFIRYDGSNKYYADSVKGRFTISRDNSKNTLYLQMKSLRAEDTAVYYCTTHGSHDNWGQGTMVTVSS
VL: SYVLTQPPSVSGTPGQRVTISCSGGRSNIGSNTVKWYQQLPGTAPKLLIYGNDQRPSGVPDRFSGSKSGTSASLAITGVQAEDEADYYCQSYDRGFTDYKVFGTGTKVTVL
notes: scFv
B2: 170-21 (scFv, V domains shown)
VH: QVQLVQSGGGVVQPGRSLRLSCAASGFTFSSYGMHWVRQAPGKGLEWVAFIRYDGSNKYYADSVKGRFTISRDNSKNTLYLQMKSLRAEDTAVYYCTTHGSQDNWGQGTMVTVSS
VL: SYVLTQPPSVSGTPGQRVTISCSGGRSNIGSNTVKWYQQLPGTAPKLLIYGNDQRPSGVPDRFSGSKSGTSASLAITGVQAEDEADYYCQSYDRGFTGPRLFGTGTKVTVL
notes: scFv
B3: 170-35 (scFv, V domains shown)
VH: QVQLVQSGGGVVQPGRSLRLSCAASGFTFSSYGMHWVRQAPGKGLEWVAFIRYDGSNKYYADSVKGRFTISRDNSKNTLYLQMKSLRAEDTAVYYCATHGSQDNWGQGTMVTVSS
VL: SYVLTQPPSVSGTPGQRVTISCSGGRSNIGSNTVKWYQQLPGTAPKLLIYGNDQRPSGVPDRFSGSKSGTSASLAITGVQAEDEADYYCQSYDRGFTGSRVFGTGTKVTVL
notes: scFv
B4: 177-C6 (scFv, V domains shown)
VH: QVQLVQSGGGVVQPGRSLRLSCAASGFTFSSYGMHWVRQAPGKGLEWVAFIRYDGSNKYYADSVKGRFTISRDNSKNTLYLQMKSLRAEDTAVYYCKTHGSHDNWGQGTMVTVSS
VL: SYVLTQPPSVSGTPGQRVTISCSGGRSNIGSNTVKWYQQLPGTAPKLLIYGNDQRPSGVPDRFSGSKSGTSASLAITGVQAEDEADYYCQSYDRGTHPVPAFGTGTKVTVL
notes: scFv
B5: 177-G6 (scFv, V domains shown)
VH: QVQLVQSGGGVVQPGRSLRLSCAASGFTFSSYGMHWVRQAPGKGLEWVAFIRYDGSNKYYADSVKGRFTISRDNSKNTLYLQMKSLRAEDTAVYYCKTHGSHDNWGQGTMVTVSS
VL: SYVLTQPPSVSGTPGQRVTISCSGGRSNIGSNTVKWYQQLPGTAPKLLIYGNDQRPSGVPDRFSGSKSGTSASLAITGVQAEDEADYYCQSYDRGTHPTMIFGTGTKVTVL
notes: scFv
B6: 177-H10 (scFv, V domains shown)
VH: QVQLVQSGGGVVQPGRSLRLSCAASGFTFSSYGMHWVRQAPGKGLEWVAFIRYDGSNKYYADSVKGRFTISRDNSKNTLYLQMKSLRAEDTAVYYCKTHGSHDNWGQGTMVTVSS
VL: SYVLTQPPSVSGTPGQRVTISCSGGRSNIGSNTVKWYQQLPGTAPKLLIYGNDQRPSGVPDRFSGSKSGTSASLAITGVQAEDEADYYCQSYDRGTHPTMYFGTGTKVTVL
notes: scFv
B7: A1 (scFv, V domains shown)
VH: QVQLVQSGGGVVQPGRSLRLSCAASGFTFSSYGMHWVRQAPGKGLEWVAFIRYDGSNKYYADSVKGRFTISRDNSKNTLYLQMKSLRAEDTAVYYCKTHGSHDNWGQGTMVTVSS
VL: SYVLTQPPSVSGTPGQRVTISCSGGRSNIGSNTVKWYQQLPGTAPKLLIYGNDQRPSGVPDRFSGSKSGTSASLAITGVQAEDEADYYCQSYDRGLPRLTHFGTGTKVTVL
notes: scFv
B8: A2 (scFv, V domains shown)
VH: QVQLVQSGGGVVQPGRSLRLSCAASGFTFSSYGMHWVRQAPGKGLEWVAFIRYDGSNKYYADSVKGRFTISRDNSKNTLYLQMKSLRAEDTAVYYCKTHGSHDNWGQGTMVTVSS
VL: SYVLTQPPSVSGTPGQRVTISCSGGRSNIGSNTVKWYQQLPGTAPKLLIYGNDQRPSGVPDRFSGSKSGTSASLAITGVQAEDEADYYCQSYDRGPYHPIRFGTGTKVTVL
notes: scFv
B9: A3 (scFv, V domains shown)
VH: QVQLVQSGGGVVQPGRSLRLSCAASGFTFSSYGMHWVRQAPGKGLEWVAFIRYDGSNKYYADSVKGRFTISRDNSKNTLYLQMKSLRAEDTAVYYCKTHGSHDNWGQGTMVTVSS
VL: SYVLTQPPSVSGTPGQRVTISCSGGRSNIGSNTVKWYQQLPGTAPKLLIYGNDQRPSGVPDRFSGSKSGTSASLAITGVQAEDEADYYCQSYDRGYPRNILFGTGTKVTVL
notes: scFv
B10: A4 (scFv, V domains shown)
VH: QVQLVQSGGGVVQPGRSLRLSCAASGFTFSSYGMHWVRQAPGKGLEWVAFIRYDGSNKYYADSVKGRFTISRDNSKNTLYLQMKSLRAEDTAVYYCKTHGSHDNWGQGTMVTVSS
VL: SYVLTQPPSVSGTPGQRVTISCSGGRSNIGSNTVKWYQQLPGTAPKLLIYGNDQRPSGVPDRFSGSKSGTSASLAITGVQAEDEADYYCQSYDRGRNPALTFGTGTKVTVL
notes: scFv
B11: A5 (scFv, V domains shown)
VH: QVQLVQSGGGVVQPGRSLRLSCAASGFTFSSYGMHWVRQAPGKGLEWVAFIRYDGSNKYYADSVKGRFTISRDNSKNTLYLQMKSLRAEDTAVYYCKTHGSHDNWGQGTMVTVSS
VL: SYVLTQPPSVSGTPGQRVTISCSGGRSNIGSNTVKWYQQLPGTAPKLLIYGNDQRPSGVPDRFSGSKSGTSASLAITGVQAEDEADYYCQSYDRGTHPSMLFGTGTKVTVL
notes: scFv
B12: A6 (scFv, V domains shown)
VH: QVQLVQSGGGVVQPGRSLRLSCAASGFTFSSYGMHWVRQAPGKGLEWVAFIRYDGSNKYYADSVKGRFTISRDNSKNTLYLQMKSLRAEDTAVYYCKTHGSHDNWGQGTMVTVSS
VL: SYVLTQPPSVSGTPGQRVTISCSGGRSNIGSNTVKWYQQLPGTAPKLLIYGNDQRPSGVPDRFSGSKSGTSASLAITGVQAEDEADYYCQSYDRGTHPWLHFGTGTKVTVL
notes: scFv
B13: A7 (scFv, V domains shown)
VH: QVQLVQSGGGVVQPGRSLRLSCAASGFTFSSYGMHWVRQAPGKGLEWVAFIRYDGSNKYYADSVKGRFTISRDNSKNTLYLQMKSLRAEDTAVYYCKTHGSHDNWGQGTMVTVSS
VL: SYVLTQPPSVSGTPGQRVTISCSGGRSNIGSNTVKWYQQLPGTAPKLLIYGNDQRPSGVPDRFSGSKSGTSASLAITGVQAEDEADYYCQSYDRGHNNFSPFGTGTKVTVL
notes: scFv
B14: A9 (scFv, V domains shown)
VH: QVQLVQSGGGVVQPGRSLRLSCAASGFTFSSYGMHWVRQAPGKGLEWVAFIRYDGSNKYYADSVKGRFTISRDNSKNTLYLQMKSLRAEDTAVYYCKTHGSHDNWGQGTMVTVSS
VL: SYVLTQPPSVSGTPGQRVTISCSGGRSNIGSNTVKWYQQLPGTAPKLLIYGNDQRPSGVPDRFSGSKSGTSASLAITGVQAEDEADYYCQSYDRGPARTSPFGTGTKVTVL
notes: scFv
B15: A10 (scFv, V domains shown)
VH: QVQLVQSGGGVVQPGRSLRLSCAASGFTFSSYGMHWVRQAPGKGLEWVAFIRYDGSNKYYADSVKGRFTISRDNSKNTLYLQMKSLRAEDTAVYYCKTHGSHDNWGQGTMVTVSS
VL: SYVLTQPPSVSGTPGQRVTISCSGGRSNIGSNTVKWYQQLPGTAPKLLIYGNDQRPSGVPDRFSGSKSGTSASLAITGVQAEDEADYYCQSYDRGNSPATVFGTGTKVTVL
notes: scFv
B16: A11 (scFv, V domains shown)
VH: QVQLVQSGGGVVQPGRSLRLSCAASGFTFSSYGMHWVRQAPGKGLEWVAFIRYDGSNKYYADSVKGRFTISRDNSKNTLYLQMKSLRAEDTAVYYCKTHGSHDNWGQGTMVTVSS
VL: SYVLTQPPSVSGTPGQRVTISCSGGRSNIGSNTVKWYQQLPGTAPKLLIYGNDQRPSGVPDRFSGSKSGTSASLAITGVQAEDEADYYCQSYDRGTFPSPQFGTGTKVTVL
notes: scFv
B17: A12 (scFv, V domains shown)
VH: QVQLVQSGGGVVQPGRSLRLSCAASGFTFSSYGMHWVRQAPGKGLEWVAFIRYDGSNKYYADSVKGRFTISRDNSKNTLYLQMKSLRAEDTAVYYCKTHGSHDNWGQGTMVTVSS
VL: SYVLTQPPSVSGTPGQRVTISCSGGRSNIGSNTVKWYQQLPGTAPKLLIYGNDQRPSGVPDRFSGSKSGTSASLAITGVQAEDEADYYCQSYDRGTTPRPMFGTGTKVTVL
notes: scFv
B18: B2 (scFv, V domains shown)
VH: QVQLVQSGGGVVQPGRSLRLSCAASGFTFSSYGMHWVRQAPGKGLEWVAFIRYDGSNKYYADSVKGRFTISRDNSKNTLYLQMKSLRAEDTAVYYCKTHGSHDNWGQGTMVTVSS
VL: SYVLTQPPSVSGTPGQRVTISCSGGRSNIGSNTVKWYQQLPGTAPKLLIYGNDQRPSGVPDRFSGSKSGTSASLAITGVQAEDEADYYCQSYDRGRPRHALFGTGTKVTVL
notes: scFv
B19: B3 (scFv, V domains shown)
VH: QVQLVQSGGGVVQPGRSLRLSCAASGFTFSSYGMHWVRQAPGKGLEWVAFIRYDGSNKYYADSVKGRFTISRDNSKNTLYLQMKSLRAEDTAVYYCKTHGSHDNWGQGTMVTVSS
VL: SYVLTQPPSVSGTPGQRVTISCSGGRSNIGSNTVKWYQQLPGTAPKLLIYGNDQRPSGVPDRFSGSKSGTSASLAITGVQAEDEADYYCQSYDRGTPSYPTFGTGTKVTVL
notes: scFv
B20: B5 (scFv, V domains shown)
VH: QVQLVQSGGGVVQPGRSLRLSCAASGFTFSSYGMHWVRQAPGKGLEWVAFIRYDGSNKYYADSVKGRFTISRDNSKNTLYLQMKSLRAEDTAVYYCKTHGSHDNWGQGTMVTVSS
VL: SYVLTQPPSVSGTPGQRVTISCSGGRSNIGSNTVKWYQQLPGTAPKLLIYGNDQRPSGVPDRFSGSKSGTSASLAITGVQAEDEADYYCQSYDRGQPHAVLFGTGTKVTVL
notes: scFv

Biological target: T1, human IL-12 (human, UniProt P29459 23-219; P29460 23-328)
T1 construct: recombinant human IL-12 heterodimer (p35/p40, disulfide-linked); also called hIL-12; rhIL-12
T1 sequence (looked up) 1: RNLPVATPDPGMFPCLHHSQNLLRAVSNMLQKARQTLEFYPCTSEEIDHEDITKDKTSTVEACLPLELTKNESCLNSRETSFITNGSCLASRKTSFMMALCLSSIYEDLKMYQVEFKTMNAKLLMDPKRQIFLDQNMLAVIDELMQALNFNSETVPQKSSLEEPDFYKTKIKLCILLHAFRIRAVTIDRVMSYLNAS
T1 sequence (looked up) 2: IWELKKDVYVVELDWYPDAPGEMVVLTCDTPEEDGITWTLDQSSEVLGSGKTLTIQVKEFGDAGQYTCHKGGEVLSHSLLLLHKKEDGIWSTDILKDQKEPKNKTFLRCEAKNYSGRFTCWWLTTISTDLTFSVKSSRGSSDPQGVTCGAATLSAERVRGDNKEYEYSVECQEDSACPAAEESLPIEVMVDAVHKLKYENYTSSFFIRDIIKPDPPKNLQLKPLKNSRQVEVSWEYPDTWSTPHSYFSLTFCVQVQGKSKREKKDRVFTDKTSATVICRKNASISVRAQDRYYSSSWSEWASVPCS
Test: SPR (BIAcore), IL-12 chip
From the text: The system utilizes the optical properties of SPR to detect alterations in protein concentrations within a dextran biosensor matrix. Proteins are covalently bound to the dextran matrix at known concentrations. […] To determine the off rate (koff), on rate (kₒₙ), association rate (Ka) and dissociation rate (Kd) constants, BIAcore kinetic evaluation software (version 2.1) was used.

Binder	koff [s⁻¹]
B1	0.001
B2	0.00369
B3	1e-05
B4	0.000794
B5	0.00055
B6	0.00344
B7	0.00566
B8	0.0038
B9	0.00251
B10	0.00147
B11	0.00112
B12	0.00187
B13	0.00395
B14	0.00798
B15	0.00187
B16	0.00207
B17	0.00143
B18	0.00361
B19	0.00412
B20	0.00304
